Data reported in the supplement of paper PMC9112550, “Optimization of the antimicrobial peptide Bac7 by deep mutational scanning” (BMC Biology, 2022).

Test system: Escherichia coli TOP10
Assay: shrunken log2 fold change of peptide-encoding DNA abundance (4.5 h post-induction vs induction); higher = less antimicrobial activity (less host growth inhibition)
Conditions: time post-induction: 4.5 h; library: site-saturation at positions 5, 18, 19, 20
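Further: peptides expressed intracellularly from a pBAD plasmid library in pooled LB shake-flask culture, induced with 0.3% L-arabinose, DNA abundance read by NGS, three biological replicates, DESeq2 with apeglm shrinkage.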

| Sequence | shrunken log2 fold change |
| --- | --- |
| RRIRTRPPRLPRPRPRPVGVPRP | 0.234 |
| RRIRDRPPRLPRPRPRPFQQPRP | -0.0599 |
| RRIRIRPPRLPRPRPRPSNAPRP | -0.0615 |
| RRIRPRPPRLPRPRPRPRSNPRP | -0.247 |
| RRIRNRPPRLPRPRPRPWPSPRP | 0.0756 |
| RRIRWRPPRLPRPRPRPFMRPRP | 0.276 |
| RRIRFRPPRLPRPRPRPEPYPRP | 0.0129 |
| RRIRQRPPRLPRPRPRPDPEPRP | -0.202 |
| RRIRLRPPRLPRPRPRPELRPRP | 0.214 |
| RRIRPRPPRLPRPRPRPLNPPRP | -0.131 |
| RRIRKRPPRLPRPRPRPDYEPRP | -0.164 |
| RRIRIRPPRLPRPRPRPCQHPRP | -0.183 |
| RRIRERPPRLPRPRPRPPYRPRP | 0.0947 |
| RRIRWRPPRLPRPRPRPRREPRP | 0.427 |
| RRIRCRPPRLPRPRPRPRCTPRP | -0.00347 |
| RRIRKRPPRLPRPRPRPWVNPRP | 0.0319 |
| RRIRSRPPRLPRPRPRPMVAPRP | 0.0774 |
| RRIRDRPPRLPRPRPRPKCMPRP | -0.153 |
| RRIRVRPPRLPRPRPRPLVEPRP | -0.125 |
| RRIRLRPPRLPRPRPRPMNIPRP | -0.504 |
| RRIRKRPPRLPRPRPRPCLGPRP | 0.0457 |
| RRIRHRPPRLPRPRPRPCLNPRP | -0.263 |

| Sequence | shrunken log2 fold change |
| --- | --- |
| RRIRSRPPRLPRPRPRPVHRPRP | -0.0285 |
| RRIRDRPPRLPRPRPRPIILPRP | 0.0057 |
| RRIRYRPPRLPRPRPRPLENPRP | -0.0143 |
| RRIRRRPPRLPRPRPRPTVAPRP | 0.699 |
| RRIRPRPPRLPRPRPRPIWCPRP | 0.0267 |
| RRIRVRPPRLPRPRPRPPSSPRP | 0.275 |
| RRIRCRPPRLPRPRPRPFPNPRP | -0.0279 |
| RRIRKRPPRLPRPRPRPQYYPRP | -0.359 |
| RRIRKRPPRLPRPRPRPSKLPRP | 0.0104 |
| RRIRSRPPRLPRPRPRPHYMPRP | -0.273 |
| RRIRNRPPRLPRPRPRPNCKPRP | -0.424 |
| RRIRNRPPRLPRPRPRPRKHPRP | -0.194 |
| RRIRGRPPRLPRPRPRPLLPPRP | 0.895 |
| RRIRPRPPRLPRPRPRPQGMPRP | -0.279 |
| RRIRYRPPRLPRPRPRPVANPRP | -0.0575 |
| RRIRNRPPRLPRPRPRPYMIPRP | 0.0323 |
| RRIRHRPPRLPRPRPRPTTFPRP | 0.0797 |
| RRIRFRPPRLPRPRPRPMQKPRP | 0.00713 |
| RRIRKRPPRLPRPRPRPYHHPRP | -0.247 |
| RRIRCRPPRLPRPRPRPYCHPRP | -1.37 |
| RRIRFRPPRLPRPRPRPVSVPRP | -0.341 |
| RRIRKRPPRLPRPRPRPHLFPRP | 0.205 |

| Sequence | shrunken log2 fold change |
| --- | --- |
| RRIRYRPPRLPRPRPRPRNFPRP | -0.358 |
| RRIRWRPPRLPRPRPRPYETPRP | -0.181 |
| RRIRYRPPRLPRPRPRPDPKPRP | -0.22 |
| RRIRDRPPRLPRPRPRPIATPRP | -0.0393 |
| RRIRLRPPRLPRPRPRPRQAPRP | -0.00965 |
| RRIRDRPPRLPRPRPRPCSLPRP | -0.0409 |
| RRIRHRPPRLPRPRPRPFRIPRP | -0.127 |
| RRIRDRPPRLPRPRPRPCPPPRP | -0.249 |
| RRIRWRPPRLPRPRPRPSQFPRP | -0.196 |
| RRIRTRPPRLPRPRPRPLAYPRP | -0.982 |
| RRIRIRPPRLPRPRPRPQMAPRP | -0.064 |
| RRIRDRPPRLPRPRPRPFYIPRP | -0.796 |
| RRIRARPPRLPRPRPRPLMEPRP | 0.493 |
| RRIRRRPPRLPRPRPRPWPQPRP | 0.101 |
| RRIRYRPPRLPRPRPRPQRLPRP | -0.131 |
| RRIRERPPRLPRPRPRPAHVPRP | -0.0768 |
| RRIRIRPPRLPRPRPRPCGEPRP | -0.0104 |
| RRIRFRPPRLPRPRPRPLKTPRP | -0.112 |
| RRIRGRPPRLPRPRPRPVMCPRP | 0.522 |
| RRIRYRPPRLPRPRPRPIWPPRP | -0.00922 |
| RRIRPRPPRLPRPRPRPWPYPRP | 0.0948 |
| RRIRGRPPRLPRPRPRPGKGPRP | 0.394 |

| Sequence | shrunken log2 fold change |
| --- | --- |
| RRIRFRPPRLPRPRPRPAHEPRP | 0.0902 |
| RRIRWRPPRLPRPRPRPNETPRP | 0.0101 |
| RRIRLRPPRLPRPRPRPWDSPRP | -0.145 |
| RRIRQRPPRLPRPRPRPRVSPRP | -0.0909 |
| RRIRHRPPRLPRPRPRPAQYPRP | -0.0609 |
| RRIRLRPPRLPRPRPRPRPTPRP | 0.484 |
| RRIRQRPPRLPRPRPRPRAEPRP | 0.292 |
| RRIRIRPPRLPRPRPRPQESPRP | -0.617 |
| RRIRPRPPRLPRPRPRPPWWPRP | 0.842 |
| RRIRNRPPRLPRPRPRPEENPRP | -0.00776 |
| RRIRGRPPRLPRPRPRPMEIPRP | -0.0753 |
| RRIRNRPPRLPRPRPRPVHYPRP | -0.124 |
| RRIRARPPRLPRPRPRPLYNPRP | -0.225 |
| RRIRGRPPRLPRPRPRPTVFPRP | 0.993 |
| RRIRGRPPRLPRPRPRPTMMPRP | 0.541 |
| RRIRVRPPRLPRPRPRPAEEPRP | 0.113 |
| RRIRFRPPRLPRPRPRPIEVPRP | 0.0653 |
| RRIRQRPPRLPRPRPRPYRIPRP | -0.111 |
| RRIRQRPPRLPRPRPRPRDNPRP | -0.0667 |
| RRIRFRPPRLPRPRPRPAARPRP | 0.192 |
| RRIRQRPPRLPRPRPRPVEQPRP | 0.0359 |
| RRIRQRPPRLPRPRPRPCCIPRP | -0.159 |

| Sequence | shrunken log2 fold change |
| --- | --- |
| RRIRWRPPRLPRPRPRPCALPRP | -0.321 |
| RRIRHRPPRLPRPRPRPGNPPRP | 0.0424 |
| RRIRIRPPRLPRPRPRPTQKPRP | 0.0769 |
| RRIRWRPPRLPRPRPRPAPPPRP | 0.579 |
| RRIRRRPPRLPRPRPRPQNIPRP | -0.33 |
| RRIRPRPPRLPRPRPRPVMGPRP | 0.149 |
| RRIRVRPPRLPRPRPRPAGPPRP | 0.264 |
| RRIRMRPPRLPRPRPRPWCFPRP | -0.144 |
| RRIRMRPPRLPRPRPRPDTCPRP | 1.25 |
| RRIRIRPPRLPRPRPRPGVPPRP | -0.0807 |
| RRIRGRPPRLPRPRPRPEHYPRP | -0.0809 |
| RRIRHRPPRLPRPRPRPIPVPRP | -0.037 |
| RRIRERPPRLPRPRPRPWTGPRP | -0.00968 |
| RRIRSRPPRLPRPRPRPSHCPRP | 0.079 |
| RRIRYRPPRLPRPRPRPDRFPRP | -0.411 |
| RRIRNRPPRLPRPRPRPTRYPRP | 0.217 |
| RRIRWRPPRLPRPRPRPYHPPRP | -1.08 |
| RRIRKRPPRLPRPRPRPTAAPRP | 0.757 |
| RRIRYRPPRLPRPRPRPQNVPRP | -0.389 |
| RRIRPRPPRLPRPRPRPMFDPRP | -0.231 |
| RRIRYRPPRLPRPRPRPAQKPRP | -0.0925 |
